# Results: publication PMC10343182, “Homogeneous Electrochemical Aptamer Sensor Based on Two-Dimensional Nanocomposite Probe and Nanochannel Modified Electrode for Sensitive Detection of Carcinoembryonic Antigen”
# T1: alpha fetoprotein (AFP) (UniProt P02771 19-609)
# T1 sequence: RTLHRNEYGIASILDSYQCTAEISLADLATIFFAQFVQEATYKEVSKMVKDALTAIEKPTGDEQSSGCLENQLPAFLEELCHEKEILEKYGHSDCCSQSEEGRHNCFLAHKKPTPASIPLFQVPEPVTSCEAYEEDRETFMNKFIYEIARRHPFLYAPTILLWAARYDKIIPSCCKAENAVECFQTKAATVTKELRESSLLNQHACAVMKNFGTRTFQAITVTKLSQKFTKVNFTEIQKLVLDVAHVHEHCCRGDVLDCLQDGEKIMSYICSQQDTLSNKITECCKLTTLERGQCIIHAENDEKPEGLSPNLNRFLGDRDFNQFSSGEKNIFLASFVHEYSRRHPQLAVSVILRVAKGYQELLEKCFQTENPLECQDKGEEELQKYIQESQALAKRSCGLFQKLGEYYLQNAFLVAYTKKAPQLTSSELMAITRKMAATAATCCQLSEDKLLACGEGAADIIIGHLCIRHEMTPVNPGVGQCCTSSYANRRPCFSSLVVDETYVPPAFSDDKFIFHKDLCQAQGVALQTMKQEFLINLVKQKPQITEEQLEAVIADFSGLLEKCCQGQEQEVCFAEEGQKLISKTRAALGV
# T2: C-reactive protein (CRP) (UniProt P02741 19-224)
# T2 sequence: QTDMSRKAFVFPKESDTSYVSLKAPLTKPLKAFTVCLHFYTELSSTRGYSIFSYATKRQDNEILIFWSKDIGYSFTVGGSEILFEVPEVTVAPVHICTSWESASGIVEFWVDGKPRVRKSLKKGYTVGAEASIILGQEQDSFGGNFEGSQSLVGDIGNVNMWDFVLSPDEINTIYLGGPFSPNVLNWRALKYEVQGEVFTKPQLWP
# Tests used:
# [1] = target: T1, alpha fetoprotein (AFP); test: electrochemical sensor (DPV), aptamer release from graphene oxide; Ru(NH3)6 3+, GO; PBS (sodium phosphate) 0.01 M, pH 7.4; GO 0.1 mg/mL, aptamer 1 uM, Ru(NH3)6 3+ 50 uM (optimum); temperature not stated; details: protein: commercial
# [2] = target: cancer antigen 153 (CA153) (UniProt P15941 24-1097); test: as above; details: protein: commercial
# cancer antigen 153 (CA153), sequence (P15941 24-1097): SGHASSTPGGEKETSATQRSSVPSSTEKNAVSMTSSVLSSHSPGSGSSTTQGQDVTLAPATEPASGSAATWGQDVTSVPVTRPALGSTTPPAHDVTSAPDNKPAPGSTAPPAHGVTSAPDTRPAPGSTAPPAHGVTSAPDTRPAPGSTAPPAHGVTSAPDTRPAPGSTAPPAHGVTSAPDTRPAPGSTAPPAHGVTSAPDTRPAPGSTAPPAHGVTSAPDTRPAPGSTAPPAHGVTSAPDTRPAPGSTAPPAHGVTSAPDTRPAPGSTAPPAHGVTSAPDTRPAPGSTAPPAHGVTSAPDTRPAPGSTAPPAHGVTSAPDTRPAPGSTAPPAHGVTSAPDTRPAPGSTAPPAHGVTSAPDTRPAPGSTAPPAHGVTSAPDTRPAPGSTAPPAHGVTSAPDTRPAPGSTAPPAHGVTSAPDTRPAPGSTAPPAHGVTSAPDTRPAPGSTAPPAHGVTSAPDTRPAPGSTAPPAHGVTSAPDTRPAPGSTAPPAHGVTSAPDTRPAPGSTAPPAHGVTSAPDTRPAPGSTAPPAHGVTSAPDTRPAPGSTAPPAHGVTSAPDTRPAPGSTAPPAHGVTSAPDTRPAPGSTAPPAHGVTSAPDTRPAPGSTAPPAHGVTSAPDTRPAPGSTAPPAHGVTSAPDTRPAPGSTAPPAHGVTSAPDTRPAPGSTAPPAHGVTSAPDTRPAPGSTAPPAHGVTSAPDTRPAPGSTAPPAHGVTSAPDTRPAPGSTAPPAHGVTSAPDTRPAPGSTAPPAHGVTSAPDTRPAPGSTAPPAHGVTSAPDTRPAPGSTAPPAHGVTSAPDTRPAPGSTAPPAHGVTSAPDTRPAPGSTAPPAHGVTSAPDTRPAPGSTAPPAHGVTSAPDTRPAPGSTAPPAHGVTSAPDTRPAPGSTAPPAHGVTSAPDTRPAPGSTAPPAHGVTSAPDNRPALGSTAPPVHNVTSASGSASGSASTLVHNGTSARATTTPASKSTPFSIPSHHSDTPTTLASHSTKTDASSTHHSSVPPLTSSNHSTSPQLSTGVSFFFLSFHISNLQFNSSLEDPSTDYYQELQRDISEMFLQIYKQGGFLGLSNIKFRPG
# [3] = target: prostate specific antigen (PSA) (UniProt P07288 25-261); test: as above; details: protein: commercial
# prostate specific antigen (PSA), sequence (P07288 25-261): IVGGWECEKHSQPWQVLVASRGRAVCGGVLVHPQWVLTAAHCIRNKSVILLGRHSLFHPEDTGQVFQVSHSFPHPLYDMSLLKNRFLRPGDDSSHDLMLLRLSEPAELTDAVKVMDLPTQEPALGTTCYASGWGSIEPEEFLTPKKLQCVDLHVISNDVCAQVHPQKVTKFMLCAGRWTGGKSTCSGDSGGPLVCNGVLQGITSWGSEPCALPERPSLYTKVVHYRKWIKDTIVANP
# [4] = target: T2, C-reactive protein (CRP); test: as above; details: protein: commercial; chain copies: 5
# [5] = target: carcinoembryonic antigen (CEA) (UniProt P06731 35-685); test: electrochemical sensor (DPV/CV), aptamer release from graphene oxide; Ru(NH3)6 3+, GO; sensor LOD 14 fg/mL, linear 60 fg/mL-100 ng/mL (not Kd); PBS (sodium phosphate) 0.01 M, pH 7.4; GO 0.1 mg/mL, aptamer 1 uM, Ru(NH3)6 3+ 50 uM (optimum); temperature not stated; details: protein: commercial
# carcinoembryonic antigen (CEA), sequence (P06731 35-685): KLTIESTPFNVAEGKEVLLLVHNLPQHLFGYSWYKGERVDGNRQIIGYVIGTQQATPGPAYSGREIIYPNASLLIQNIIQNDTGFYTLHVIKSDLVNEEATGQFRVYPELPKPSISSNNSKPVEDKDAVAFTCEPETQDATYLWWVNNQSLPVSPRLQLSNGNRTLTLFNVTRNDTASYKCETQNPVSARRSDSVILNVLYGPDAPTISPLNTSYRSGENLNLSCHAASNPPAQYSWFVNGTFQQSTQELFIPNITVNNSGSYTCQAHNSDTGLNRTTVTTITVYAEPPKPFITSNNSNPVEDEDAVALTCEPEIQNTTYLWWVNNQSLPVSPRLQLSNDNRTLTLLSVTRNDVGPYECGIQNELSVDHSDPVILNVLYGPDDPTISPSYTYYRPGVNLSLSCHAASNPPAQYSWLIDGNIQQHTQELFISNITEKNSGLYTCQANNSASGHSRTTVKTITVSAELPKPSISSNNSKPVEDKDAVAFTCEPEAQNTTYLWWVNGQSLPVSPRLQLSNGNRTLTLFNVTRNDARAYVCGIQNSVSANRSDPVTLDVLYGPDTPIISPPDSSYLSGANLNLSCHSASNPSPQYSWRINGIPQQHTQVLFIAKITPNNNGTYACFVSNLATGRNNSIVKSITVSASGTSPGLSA
binder,measurement,setting,value
"ATACAGCTTCAATT (ssDNA, 3'-NH2) [CEA aptamer (Apt)]",binding result,[1],no binding
same,binding result,[2],no binding
same,binding result,[3],no binding
same,binding result,[4],no binding
same,binding result,[5],binds
